This passage reports collision cross section results from the supplement of paper PMC10598134.

± gives the standard deviation.

This data set in a line: collision cross section of modified peptide (TIMS, N2, iRT-aligned); higher = larger / more extended gas-phase ion. As for the experimental part:
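1/K0 was aligned run-wise to spiked iRT peptides and converted to CCS in N2 (Mason-Schamp). Values are the mean of 1-3 technical replicates for the most abundant feature at each charge state.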

[1] abbreviates: charge state: 2, modification: Nitro (Y).
Where [2] appears, read: charge state: 3, modification: Nitro (Y).
[3] abbreviates: charge state: 2, modification: Phospho (Y).
Setting [4] is: charge state: 3, modification: Phospho (Y).
Where [5] appears, read: charge state: 2, modification: Citrullination (R).
[6] abbreviates: charge state: 3, modification: Citrullination (R).
The mark [7] stands for this setting: charge state: 2, modification: Methyl (R).
Where [8] appears, read: charge state: 3, modification: Methyl (R).
[9] abbreviates: charge state: 2, modification: Acetyl (K).
[10] abbreviates: charge state: 2, modification: Biotin.
Where [11] appears, read: charge state: 3, modification: Biotin.
[12] abbreviates: charge state: 2, modification: Butyryl.
[13] abbreviates: charge state: 2, modification: Crotonyl.
Setting [14] is: charge state: 2, modification: Dimethyl (K).
The mark [15] stands for this setting: charge state: 3, modification: Dimethyl (K).
[16] abbreviates: charge state: 2, modification: Formyl.
The mark [17] stands for this setting: charge state: 2, modification: Glutarylation.
Setting [18] is: charge state: 3, modification: Glutarylation.
Setting [19] is: charge state: 2, modification: GlyGly (K).
Where [20] appears, read: charge state: 3, modification: GlyGly (K).
Setting [21] is: charge state: 2, modification: Malonyl.
The mark [22] stands for this setting: charge state: 3, modification: Malonyl.
[23] abbreviates: charge state: 2, modification: Methyl (K).
Setting [24] is: charge state: 3, modification: Methyl (K).
[25] abbreviates: charge state: 2, modification: Propionyl.
The mark [26] stands for this setting: charge state: 2, modification: Succinyl.
Where [27] appears, read: charge state: 3, modification: Succinyl.
Setting [28] is: charge state: 2, modification: Trimethyl (K).
[29] abbreviates: charge state: 3, modification: Trimethyl (K).
The mark [30] stands for this setting: charge state: 2, modification: hydroxyisobutyryl.
Setting [31] is: charge state: 3, modification: hydroxyisobutyryl.
The mark [32] stands for this setting: charge state: 3, modification: Acetyl (K).
[33] abbreviates: charge state: 3, modification: Butyryl.
Setting [34] is: charge state: 3, modification: Crotonyl.

In the case of AAGQPYEQHAK [_AAGQPY(Nitro (Y))EQHAK_], the collision cross section is, setting by setting: under setting [1], 375.04 ± 1.1 Å²; under setting [2], 431.09 ± 1.1 Å².
For the sequence “AAGQPYEQHAK [_AAGQPY(Phospho (Y))EQHAK_]”, the collision cross section under setting [3] is 368.83 ± 10 Å² and the collision cross section under setting [4] was determined as 436.55 Å².
Turning to “AAHGRGALAEAAR [_AAHGR(Citrullination (R))GALAEAAR_]”, the collision cross section came to 378.79 ± 0.65 Å² under setting [5] and 458.38 ± 1.8 Å² under setting [6].
Take “AAHGRGALAEAAR [_AAHGR(Methyl (R))GALAEAAR_]”: the collision cross section is given as 401.51 ± 8.3 Å² under setting [7] and 469.45 ± 1.5 Å² under setting [8].
Consider “AAINQKLIETGER [_AAINQK(Acetyl (K))LIETGER_]”, for which, under setting [9], the collision cross section came to 403.07 ± 1 Å².
With AAINQKLIETGER [_AAINQK(Biotin)LIETGER_], the collision cross section under setting [10] came out at 426.96 ± 1.5 Å² and the collision cross section under setting [11] is on record as 497.24 Å².
As to “AAINQKLIETGER [_AAINQK(Butyryl)LIETGER_]”, the collision cross section under setting [12] is recorded as 410.95 ± 1.7 Å².
In the case of “AAINQKLIETGER [_AAINQK(Crotonyl)LIETGER_]”, the collision cross section under setting [13] stood at 409.27 ± 0.81 Å².
For “AAINQKLIETGER [_AAINQK(Dimethyl (K))LIETGER_]”, the collision cross section amounted to 413.1 ± 1.4 Å² under setting [14] and 468.56 ± 2.6 Å² under setting [15].
Turning to AAINQKLIETGER [_AAINQK(Formyl)LIETGER_], the collision cross section under setting [16] is given as 399.86 ± 0.2 Å².
As for “AAINQKLIETGER [_AAINQK(Gluratylation)LIETGER_]”, the collision cross section is, setting by setting: under setting [17], 412.05 ± 1.1 Å²; under setting [18], 483.6 ± 2.4 Å².
“AAINQKLIETGER [_AAINQK(GlyGly (K))LIETGER_]”: the collision cross section reads like this: under setting [19], 412.96 ± 0.98 Å²; under setting [20], 477.22 ± 1.3 Å².
Regarding “AAINQKLIETGER [_AAINQK(Malonyl)LIETGER_]”, the collision cross section by setting is: under setting [21], 404.84 ± 0.034 Å²; under setting [22], 473.19 Å².
With “AAINQKLIETGER [_AAINQK(Methyl (K))LIETGER_]”, the collision cross section reads like this: under setting [23], 414.21 ± 2.1 Å²; under setting [24], 471.88 ± 4.4 Å².
On to “AAINQKLIETGER [_AAINQK(Propionyl)LIETGER_]”, for which the collision cross section under setting [25] stood at 404.63 ± 0.38 Å².
For “AAINQKLIETGER [_AAINQK(Succinyl)LIETGER_]”, the collision cross section reads like this: under setting [26], 409.41 ± 0.25 Å²; under setting [27], 475.95 ± 0.68 Å².
For “AAINQKLIETGER [_AAINQK(Trimethyl (K))LIETGER_]”, the collision cross section is given as 420.64 ± 0.75 Å² under setting [28] and 472.14 ± 3.7 Å² under setting [29].
With “AAINQKLIETGER [_AAINQK(hydroxyisobutyryl)LIETGER_]”, the collision cross section stood at 409.76 ± 0.32 Å² under setting [30] and 478.62 Å² under setting [31].
For “AAQASDLEKIHLDEK [_AAQASDLEK(Acetyl (K))IHLDEK_]”, the collision cross section is recorded as 454.7 ± 2.5 Å² under setting [9] and 495.59 ± 1.3 Å² under setting [32].
Consider “AAQASDLEKIHLDEK [_AAQASDLEK(Biotin)IHLDEK_]”, for which the collision cross section under setting [11] is on record as 515.52 Å².
For the sequence “AAQASDLEKIHLDEK [_AAQASDLEK(Butyryl)IHLDEK_]”, the collision cross section runs as follows: under setting [12], 463.03 ± 1.1 Å²; under setting [33], 499.42 ± 2.9 Å².
“AAQASDLEKIHLDEK [_AAQASDLEK(Crotonyl)IHLDEK_]”: the collision cross section is, setting by setting: under setting [13], 464.23 ± 0.82 Å²; under setting [34], 499.02 ± 2.2 Å².
As to “AAQASDLEKIHLDEK [_AAQASDLEK(Dimethyl (K))IHLDEK_]”, under setting [15], the collision cross section was found to be 503.12 ± 0.75 Å².
With “AAQASDLEKIHLDEK [_AAQASDLEK(Formyl)IHLDEK_]”, the collision cross section was 452.43 ± 0.71 Å² under setting [16] and 490.12 ± 2.1 Å² (charge state: 3, modification: Formyl).
Take “AAQASDLEKIHLDEK [_AAQASDLEK(Gluratylation)IHLDEK_]”: the collision cross section was 471.95 ± 1.5 Å² under setting [17] and 503.34 ± 1 Å² under setting [18].
Consider “AAQASDLEKIHLDEK [_AAQASDLEK(GlyGly (K))IHLDEK_]”, for which the collision cross section is, setting by setting: under setting [19], 469.33 ± 0.94 Å²; under setting [20], 508.49 ± 1.9 Å².
Consider “AAQASDLEKIHLDEK [_AAQASDLEK(Malonyl)IHLDEK_]”, for which the collision cross section under setting [21] came to 460.56 ± 1.1 Å² and the collision cross section under setting [22] is reported as 500.48 Å².
For “AAQASDLEKIHLDEK [_AAQASDLEK(Methyl (K))IHLDEK_]”, the collision cross section was found to be 449.24 Å² under setting [23] and 507.05 ± 2 Å² under setting [24].
Turning to “AAQASDLEKIHLDEK [_AAQASDLEK(Propionyl)IHLDEK_]”, the collision cross section (charge state: 3, modification: Propionyl) was 496.94 Å².
“AAQASDLEKIHLDEK [_AAQASDLEK(Succinyl)IHLDEK_]”: the collision cross section stood at 468.29 ± 1.1 Å² under setting [26] and 505.3 ± 1.6 Å² under setting [27].
In the case of “AAQASDLEKIHLDEK [_AAQASDLEK(Trimethyl (K))IHLDEK_]”, the collision cross section runs as follows: under setting [28], 457.14 Å²; under setting [29], 500.66 ± 1.6 Å².
As for “AAQASDLEKIHLDEK [_AAQASDLEK(hydroxyisobutyryl)IHLDEK_]”, the collision cross section reads like this: under setting [30], 466.52 ± 0.88 Å²; under setting [31], 501.4 ± 2.8 Å².
On to “AAYQAAIRGVGSAQSR [_AAYQAAIR(Citrullination (R))GVGSAQSR_]”, for which the collision cross section reads like this: under setting [5], 418.72 ± 0.97 Å²; under setting [6], 501.27 ± 7.8 Å².
Take “AAYQAAIRGVGSAQSR [_AAYQAAIR(Methyl (R))GVGSAQSR_]”: the collision cross section by setting is: under setting [7], 442.78 ± 1 Å²; under setting [8], 510.48 ± 1.7 Å².
On to AEGYEVAHGGR [_AEGY(Nitro (Y))EVAHGGR_], for which the collision cross section is, setting by setting: under setting [1], 365.03 ± 0.17 Å²; under setting [2], 442.95 ± 1.1 Å².
Consider “AEGYEVAHGGR [_AEGY(Phospho (Y))EVAHGGR_]”, for which the collision cross section is, setting by setting: under setting [3], 370.65 ± 0.064 Å²; under setting [4], 440.52 Å².
In the case of “AGPNASIISLKSDK [_AGPNASIISLK(Acetyl (K))SDK_]”, the collision cross section under setting [9] came to 408.51 ± 3 Å².
Regarding “AGPNASIISLKSDK [_AGPNASIISLK(Biotin)SDK_]”, the collision cross section runs as follows: under setting [10], 431.71 ± 1.7 Å²; under setting [11], 469.41 Å².
Under setting [12], “AGPNASIISLKSDK [_AGPNASIISLK(Butyryl)SDK_]” returned a collision cross section of 413.93 ± 1.1 Å².
In the case of “AGPNASIISLKSDK [_AGPNASIISLK(Crotonyl)SDK_]”, the collision cross section under setting [13] was found to be 412.97 ± 0.55 Å².
In the case of “AGPNASIISLKSDK [_AGPNASIISLK(Dimethyl (K))SDK_]”, the collision cross section under setting [14] is on record as 413.93 ± 1.1 Å² and the collision cross section under setting [15] came out at 484.65 ± 1.6 Å².
Under setting [16], “AGPNASIISLKSDK [_AGPNASIISLK(Formyl)SDK_]” displayed a collision cross section of 404.66 ± 0.43 Å².
Consider “AGPNASIISLKSDK [_AGPNASIISLK(Gluratylation)SDK_]”, for which, under setting [17], the collision cross section amounted to 416.83 ± 0.49 Å².
With “AGPNASIISLKSDK [_AGPNASIISLK(GlyGly (K))SDK_]”, the collision cross section by setting is: under setting [19], 420.97 ± 0.85 Å²; under setting [20], 488.88 ± 2 Å².
“AGPNASIISLKSDK [_AGPNASIISLK(Malonyl)SDK_]”: the collision cross section under setting [21] was determined as 411.98 ± 0.71 Å².
Take “AGPNASIISLKSDK [_AGPNASIISLK(Methyl (K))SDK_]”: the collision cross section came out at 413.97 ± 1.5 Å² under setting [23] and 479.63 ± 3.4 Å² under setting [24].
Under setting [25], “AGPNASIISLKSDK [_AGPNASIISLK(Propionyl)SDK_]” displayed a collision cross section of 409.61 ± 0.38 Å².
Take “AGPNASIISLKSDK [_AGPNASIISLK(Succinyl)SDK_]”: under setting [26], the collision cross section is recorded as 414.91 ± 0.86 Å².
For “AGPNASIISLKSDK [_AGPNASIISLK(Trimethyl (K))SDK_]”, the collision cross section by setting is: under setting [28], 422.03 ± 0.65 Å²; under setting [29], 457.38 ± 2.4 Å².
With “AGPNASIISLKSDK [_AGPNASIISLK(hydroxyisobutyryl)SDK_]”, the collision cross section under setting [30] came to 415.63 ± 0.53 Å².
In the case of “AGQKLIDVNHYAK [_AGQK(Acetyl (K))LIDVNHYAK_]”, the collision cross section runs as follows: under setting [9], 429.91 ± 1.7 Å²; under setting [32], 479.89 ± 2.5 Å².
Consider AGQKLIDVNHYAK [_AGQK(Biotin)LIDVNHYAK_], for which the collision cross section reads like this: under setting [10], 451.79 ± 0.62 Å²; under setting [11], 517.92 ± 3.1 Å².
On to “AGQKLIDVNHYAK [_AGQK(Butyryl)LIDVNHYAK_]”, for which the collision cross section reads like this: under setting [12], 434.25 ± 1.1 Å²; under setting [33], 485.15 ± 2.9 Å².
In the case of “AGQKLIDVNHYAK [_AGQK(Crotonyl)LIDVNHYAK_]”, the collision cross section under setting [13] was 434.02 ± 0.33 Å² and the collision cross section under setting [34] stood at 485.3 ± 1.3 Å².
“AGQKLIDVNHYAK [_AGQK(Dimethyl (K))LIDVNHYAK_]” displayed a collision cross section under setting [15] of 472.93 ± 1.2 Å².
